± gives the standard deviation of the averaged measurements.
Test system: ATP
Assay: switch fluorescence ratio, 500 uM ATP over buffer (Cy3 cluster intensity, sum of 5 cycles each) (fold (ratio)); higher = stronger signal-on switching upon ATP binding; sequences stand for … in TCGTCGGCAGCGTCAGATGTGTATAAGAGACAGTTTTTTTTTTTTTTTTTTTTTTTTT…TC
Conditions: aptamer strand: ATP DNA aptamer (quencher-CACCTGGGGGAGTATTGCGGAGGAAGG + anchor), 100 nM annealed; ATP concentration: 500 uM
Procedure, shortened: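 The fluorescence ratio divides summed target-cycle Cy3 intensity by summed buffer-cycle Cy3 intensity for each cluster and is averaged per switch-domain sequence. Cy3-labelled switching-strand clusters on a modified Illumina MiSeq flow-cell were annealed to 100 nM quencher-labelled ATP aptamer, then imaged in selection buffer and again after 15 min with 500 uM ATP at 22 °C. Five such cycles were run, with NaOH stripping and re-annealing between them, and clusters outside 100-1000 RFU were excluded.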
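Further: ATP exposure 15 min at 22 °C before imaging.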

Sequence | switch fluorescence ratio
ATACGGCCCC | 1.2 ± 0.1
AGATGGTCAC | 1.032 ± 0.0086
AGAATGGAGA | 1 ± 0.013
GGGGAGTTTG | 1.01 ± 0.064
CACAAACAGA | 1.12 ± 0.036
TTAGAGGGGA | 0.985 ± 0.031
TAGATGTATT | 0.974 ± 0.013
AAAGACACTC | 1.04 ± 0.071
TGTGTGTAAG | 1.001 ± 0.0067
GAGAAGCAGT | 1 ± 0.024
GGTCGAGCC | 0.983 ± 0.021
TTTACCTTGC | 2.03 ± 0.19
ATCGTGGTCA | 0.987 ± 0.018
AGTTAGGAGT | 0.9895 ± 0.0087
ACGACGTTGA | 1.07 ± 0.032
AATTCTGAGA | 1.02 ± 0.048
GAAGGCAAGG | 1.07 ± 0.011
AGAAACAAAC | 1.041 ± 0.0083
CGCATTTAGT | 1.12 ± 0.0063
TTGATCACTT | 1.001 ± 0.005
GCCGTGGAGA | 1.03 ± 0.021
CAATTTTTTT | 1.08 ± 0.12
TACAGTTGTA | 0.971 ± 0.06
GGACTGTTTG | 1.01 ± 0.041
TGTCGGTGTC | 1.01 ± 0.028
AAGCCGGGTC | 0.991 ± 0.0014

Sequence | switch fluorescence ratio
TAAGGTAACG | 1.05 ± 0.12
TAACGCTAGA | 1.06 ± 0.03
GGGTTGCGGA | 0.966 ± 0.035
TAAGTTAGCC | 1.049 ± 0.005
CGCAGGGTTA | 1.02 ± 0.052
TTATGTTGTT | 1 ± 0.018
GTCGGGGGTG | 0.983 ± 0.041
CGGGTTCCGA | 0.998 ± 0.024
TTCGTTAGCA | 1.54 ± 0.8
GTCGGTTTTT | 0.972 ± 0.022
GAGTGGGGGA | 0.99 ± 0.023
ACTGGTTCGT | 0.998 ± 0.012
GAGGGTGTAG | 0.988 ± 0.018
TAGGGCCACG | 1.01 ± 0.018
ATAAATGCGG | 1.02 ± 0.041
TTTTCTGTG | 0.977 ± 0.031
AAGTGCGGCC | 0.987 ± 0.011
GTGTTTATAG | 0.993 ± 0.018
ATGGGATGGC | 0.97 ± 0.031
GTGGTGTGGT | 0.982 ± 0.011
TTCTTTTTAT | 0.982 ± 0.03
TAATTCGGCA | 0.995 ± 0.0044
ATTGGCTAGG | 0.999 ± 0.037
GATGCTATTT | 1.004 ± 0.0087
TAGAATGTGT | 1.027 ± 0.0043
AGAAGGGGGC | 0.989 ± 0.062

Sequence | switch fluorescence ratio
TAGGTAGGGA | 0.993 ± 0.018
AAGGCACGCT | 1 ± 0.065
AGTTGCCAGC | 0.994 ± 0.01
TTGCAAGGCG | 1 ± 0.062
CGGTGTGCCT | 0.966 ± 0.029
TGAAATCATA | 0.996 ± 0.037
TAGCGATGCG | 1.031 ± 0.0042
TTTTTATTCT | 1.02 ± 0.02
GCGGGACTGG | 1.04 ± 0.034
GGTGTGTAGA | 1.02 ± 0.038
TACTATTTTT | 1 ± 0.018
GTTGGCCGGC | 1.11 ± 0.073
TTTATTTTCC | 1.05 ± 0.033
GGGGTTGAAT | 1.01 ± 0.046
ATCTCACTT | 1.02 ± 0.03
GCCGGATTGC | 1.07 ± 0.033
ACGGGGGTCC | 1.02 ± 0.025
ATCATGGGAC | 1.03 ± 0.0069
ACGGGAGCTT | 1.03 ± 0.041
CATTTGTTCT | 1 ± 0.049
TAGGGGGCGT | 0.987 ± 0.0032
AGATACAGTT | 1.02 ± 0.034
TGGGGTATTG | 0.974 ± 0.012
GGTGTAGGCG | 0.969 ± 0.039
TTAATCCCGT | 1.04 ± 0.048
GGGGCTTATC | 1.03 ± 0.043

Sequence | switch fluorescence ratio
ATGATACAGT | 1.021 ± 0.0067
TAGGGAAATT | 1.04 ± 0.021
TAGTAACATA | 1.006 ± 0.0036
CGGGTTTTTC | 0.972 ± 0.028
AAGTATAGTT | 1.04 ± 0.056
TTTGGTTTGC | 0.992 ± 0.0039
AAAGGACGGG | 1.017 ± 0.0031
CAACGGACTA | 1.246 ± 0.0095
TTTTCTGTTA | 1.032 ± 0.0085
TTTACAAGGT | 1.03 ± 0.014
TACTTTATTT | 1.16 ± 0.21
GGAAACTAGG | 1.016 ± 0.003
CGGGATGTAG | 0.987 ± 0.026
GCTCCCAGGA | 1.92 ± 0.026
GAAAAAGTGA | 0.975 ± 0.054
CCCGTGCCTA | 1.03 ± 0.064
CATGGATTAA | 1 ± 0.011
TGATGCCGAA | 1.022 ± 0.0034
GTTTGCTGGG | 0.983 ± 0.035
CGGGGGGGGT | 1.01 ± 0.031
ATTGAAATCA | 0.987 ± 0.018
GAGTTCCTGT | 1.01 ± 0.014
GGTTTAGGCC | 0.991 ± 0.03
GTGGAAGTCC | 1 ± 0.022
AAGTATGTAT | 1.02 ± 0.041
ATCAGTTCCT | 1.04 ± 0.013

Sequence | switch fluorescence ratio
GAGTATTTAA | 0.964 ± 0.058
AAAGTCGCGT | 1 ± 0.032
GGGGTATGTC | 1.02 ± 0.053
GGACTTGGTT | 1.01 ± 0.034
GATTTGAGGC | 0.987 ± 0.018
ATTTTGGGTG | 1.08 ± 0.049
AGTAGGGGCC | 1.012 ± 0.0083
GCACGCGTGC | 1.01 ± 0.044
AGTGGCTTCC | 2.043 ± 0.013
ATGGTTTCGA | 0.982 ± 0.04
TTATGCAAAG | 1.1 ± 0.15
TCGGCCTGCT | 1.01 ± 0.021
GATAAATGGG | 0.994 ± 0.024
GCGTTAGCCA | 1.01 ± 0.022
GTAGCAGGGG | 1.3 ± 0.068
TTGTTTTTGT | 1.03 ± 0.032
TTTTGGAGCC | 1.06 ± 0.046
TCGGTAGTGG | 1 ± 0.028
TCAATGGGTA | 0.991 ± 0.021
GTCATGGTAG | 1.02 ± 0.031
AAAATGGCTT | 0.988 ± 0.034
CACGTTTGGG | 1.01 ± 0.027
TGCCTCTTTT | 0.9886 ± 0.006
CTAGCACGGA | 0.9713 ± 0.0093
CTTGAAATTC | 1.04 ± 0.017
TGGACCGGTC | 0.996 ± 0.01

Sequence | switch fluorescence ratio
TAGGGAGTCA | 0.971 ± 0.019
CGCCAGAAGG | 0.9883 ± 0.0036
GAAAAATTAA | 0.993 ± 0.026
CGCGCGGTGT | 1.17 ± 0.2
GGAGGCCCCA | 0.996 ± 0.033
AGTCCCGTGC | 1.03 ± 0.052
AAGCCGTGGC | 0.975 ± 0.11
TTCCTAATTT | 1.63 ± 0.94
CGTCAGGCAT | 1.17 ± 0.026
CATAATGCGG | 1.005 ± 0.0012
TGGAAGAGGG | 1 ± 0.018
GTGGGGGAAT | 1 ± 0.011
TAAAAGGCGG | 1.03 ± 0.029
TTCCTTGCGT | 1.14 ± 0.043
AAGAATCAGA | 0.98 ± 0.015
CGTTAGTTTT | 0.9924 ± 0.0021
GGTTGTGGGA | 0.98 ± 0.053
ATAAGGGGTA | 0.98 ± 0.019
TCCTGAGGAT | 1 ± 0.058
TTTTTCCAAA | 1 ± 0.041
CAATGCACGG | 1.07 ± 0.0098
GATGCAGGGC | 1.12 ± 0.081
TTAAATTAAT | 0.976 ± 0.047

From the supplement of paper PMC10126150
